Key:
[1] = target: T1, recombinant ED-B domain of human fibronectin with six histidine tags at the carboxyl terminal (human, UniProt P02751 1266-1356); experiment: ELISA, Scatchard assay method (Beatty), coated ED-B
T1 construct: domain: ED-B; also called ED-B antigen; independent ED-B domain
Description: The Scatchard assay method (Beatty, Beatty et al. 1987) is used for the affinity determination. 0.1 μg/μl ED-B antigen is diluted according to four concentration gradients of 1:1, 1:2, 1:4 and 1:8, enveloped in the ELISA plate, stored overnight at 4° C., and then blocked with 4% skimmed milk. The single-chain antibody diluted according to the concentration gradient of 1:3 is added with the original concentration of the antibody being 10 μg/ml. The antibody reacts under a room temperature for 1 hr, then reacts for 1 hr under the addition of a horseradish peroxidase-labeled rabbit-anti-human IgG antibody, and is stained by adding tetramethyl benzidine (TMB). When an appropriate color depth is reached, the staining is terminated by using 2M H₂SO₄, and the OD450 optical absorption value is determined.

[2] = target: FN(789), recombinant fibronectin fragment of domains 7, 8 and 9 without the ED-B domain, with 6xHis tags (human, UniProt P02751-1 1173-1446, limits assumed); experiment: ELISA on coated antigen, antibody B5 as primary antibody, HRP-labeled rabbit anti-human IgG as secondary antibody, OD450
Description: The plasmid is expressed in E. coli and then purified through a Ni-chelating column. The aforementioned three proteins are used as antigens and are blocked with milk. Then an ELISA detection test is conducted by using the antibody B5 as a primary antibody and using the horseradish peroxidase-labeled rabbit-anti-human IgG antibody as the secondary antibody, with the test results being shown in FIG. 2.

[3] = target: T1, recombinant ED-B domain of human …; experiment: SPR, BIAcore3000, ED-B amine-coupled on the chip

T1 sequence (P02751 other isoform, or with tags, fused parts or gaps limits assumed): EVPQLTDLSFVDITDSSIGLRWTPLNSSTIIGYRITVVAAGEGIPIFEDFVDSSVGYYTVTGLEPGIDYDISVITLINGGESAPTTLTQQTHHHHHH
FN(789), recombinant fibronectin fragment of domains 7, 8 and 9 without the ED-B domain, with 6xHis tags, sequence (P02751 other isoform, or with tags, fused parts or gaps limits assumed): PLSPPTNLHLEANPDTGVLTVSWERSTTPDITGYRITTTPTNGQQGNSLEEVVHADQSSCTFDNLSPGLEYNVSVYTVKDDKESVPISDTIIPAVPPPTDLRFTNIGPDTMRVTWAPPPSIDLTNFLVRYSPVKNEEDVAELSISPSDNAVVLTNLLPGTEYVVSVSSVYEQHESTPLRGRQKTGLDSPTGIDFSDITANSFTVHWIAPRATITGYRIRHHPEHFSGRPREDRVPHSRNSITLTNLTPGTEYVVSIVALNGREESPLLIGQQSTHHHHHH

Kd [1]	binding result [2]	Kd [3]	Binder
1.8 nM	no binding	–	antibody B5 (humanized single-chain antibody against the ED-B domain, expressed as a fusion with the Fc of human IgG1) (Fc fusion, also called B5-IgG1Fc; single-chain antibody B5; not shown: Fc fragment of the constant region of human IgG1, fused in frame after the scFv (pCI-neo vector); limits and junction no) scFv: EVQLLESGGGLVQPGGSLRLSCAASGFTFSSYAMSWVRQAPGKGLEWVSRISPSGSSTYYADSVKGRFTISRDNSKNTLYLQMNSLRAEDTAVYYCARHTAPLFDYWGQGTLVTVSSGGGGSGGGGSGGGGSSEIVLTQSPGTLSLSPGERATLSCRASQSVSSSYLAWYQQKPGQAPRLLIYKASNLATGIPDRFSGSGSGTDFTLTISRLEPEDFAVYYCQQGRHTPPTFGQGTKVEIK
6 nM	–	0.4 nM	antibody L19 (antibody, V domains shown) VH: EVQLLESGGGLVQPGGSLRLSCAASGFTFSSFSMSWVRQAPGKGLEWVSSISGSSGTTYYADSVKGRFTISRDNSKNTLYLQMNSLRAEDTAVYYCAKPFPYFDYWGQGTLVTVSS VL: EIVLTQSPGTLSLSPGERATLSCRASQSVSSSYLAWYQQKPGQAPRLLIYYASSRATGIPDRFSGSGSGTDFTLTISRLEPEDFAVYYCQQTGRIPPTFGQGTKVEIK
